# Laboratory results: PMC9747239, “State-selective modulation of heterotrimeric Gαs signaling with macrocyclic peptides” (Cell, 2022)
# B1: Biotinylated Avi-Gαs (WT), residues 7-380 of the short isoform of human Gαs (natural protein)
# chain: SKTEDQRNEEKAQREANKKIEKQLQKDKQVYRATHRLLLLGAGESGKSTIVKQMRILHVNGFNGDSEKATKVQDIKNNLKEAIETIVAAMSNLVPPVELANPENQFRVDYILSVMNVPDFDFPPEFYEHAKALWEDEGVRACYERSNEYQLIDCAQYFLDKIDVIKQADYVPSDQDLLRCRVLTSGIFETKFQVDKVNFHMFDVGGQRDERRKWIQCFNDVTAIIFVVASSSYNMVIREDNQTNRLQEALNLFKSIWNNRWLRTISVILFLNKQDLLAEKVLAGKSKIEDYFPEFARYTTPEDATPEPGEDPRVTRAKYFIRDEFLRISTASGDGRHYCYPHFTCAVDTENIRRVFNDCRDIIQRMHLRQYELL
# modifications: biotin on the Avi tag (BirA)
# notes: human Gαs (GNAS), short isoform, residues 7-380; Loaded with GNP (GppNHp) or GDP; the nucleotide state is told by the assay; also called Gαs/GNP; Gαs/GDP; source: E. coli BL21(DE3), purified (TALON, Drice cleavage, BirA biotinylation, Source-15Q, gel filtration); not shown: Avi tag, N-terminal, kept; His6, N-terminal, cleaved
# Molecular target: T1, His-Gβ1/Gγ2(C68S) (human, UniProt P62873 1-340; P59768 1-71, C68S)
# T1 construct: human Gβ1 (GNB1); human Gγ2 (GNG2) with C68S; also called Gβγ; Gβγ(C68S); source: Sf9, baculovirus (pFastBac Dual), co-expressed, purified (TALON, gel filtration); not shown: His6, N-terminal, kept
# T1 sequence (P62873 whole entry, chain 1 of 2): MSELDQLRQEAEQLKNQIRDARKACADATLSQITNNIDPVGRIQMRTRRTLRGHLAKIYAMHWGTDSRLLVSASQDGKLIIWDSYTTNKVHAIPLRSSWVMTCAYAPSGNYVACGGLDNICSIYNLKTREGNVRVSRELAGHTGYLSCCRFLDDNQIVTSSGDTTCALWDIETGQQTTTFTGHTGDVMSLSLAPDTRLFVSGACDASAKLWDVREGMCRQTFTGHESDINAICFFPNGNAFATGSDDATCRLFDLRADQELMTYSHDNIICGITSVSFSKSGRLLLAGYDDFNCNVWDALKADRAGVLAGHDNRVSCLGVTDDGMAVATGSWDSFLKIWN
# T1 sequence (P59768 whole entry C68S, chain 2 of 2): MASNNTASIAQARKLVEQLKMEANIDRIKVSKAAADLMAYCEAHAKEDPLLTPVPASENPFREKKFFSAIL
# Experiment: AlphaScreen or HTRF; TR-FRET Gα/Gβγ interaction assay: 4 nM biotinylated avi-Gα with streptavidin XL665, 2 nM His-Gβ1/γ2(C68S) with anti-6His-Tb cryptate, cyclic peptide 0-10,000 nM; 1X PBS 7.4, 2 mM DTT, 0.1% BSA, 2 mM MgCl2, 0.05% Tween, 0.5 mM GDP, 2 h at room temperature
# Conditions: both partners purified
binder,measurement,value
B1,binding result,binds
